T1: human Claudin 18.2 (human, UniProt P56856-2 1-261)
T1 construct: whole, on cells
T1 sequence (looked up): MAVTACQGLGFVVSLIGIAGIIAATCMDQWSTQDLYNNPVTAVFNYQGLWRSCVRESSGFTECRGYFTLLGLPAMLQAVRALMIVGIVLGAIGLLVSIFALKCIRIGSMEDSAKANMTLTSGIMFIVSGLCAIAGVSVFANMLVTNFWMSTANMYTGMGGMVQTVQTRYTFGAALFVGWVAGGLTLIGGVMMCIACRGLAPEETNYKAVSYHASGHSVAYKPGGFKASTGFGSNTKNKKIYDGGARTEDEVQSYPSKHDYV

T2: human Claudin 18.1 (human, UniProt P56856 1-261)
T2 construct: whole, on cells
T2 sequence (looked up): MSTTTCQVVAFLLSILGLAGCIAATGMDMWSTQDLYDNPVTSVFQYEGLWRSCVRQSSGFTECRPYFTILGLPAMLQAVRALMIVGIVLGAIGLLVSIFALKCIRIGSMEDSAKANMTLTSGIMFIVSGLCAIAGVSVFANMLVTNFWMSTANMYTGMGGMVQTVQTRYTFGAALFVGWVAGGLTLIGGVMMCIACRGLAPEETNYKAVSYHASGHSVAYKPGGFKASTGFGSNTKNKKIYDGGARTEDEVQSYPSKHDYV


Columns and labels:
human Claudin 18.2 = biological target: T1, human Claudin 18.2; test: flow cytometry (iQue) on HEK293-Claudin 18.2 cells, chimeric IgG1
Experimental: (§1) The HEK293-Claudin 18.1 cells, HEK293-Claudin 18.2 cells and HEK293 cells at logarithmic growth phase were taken, after digesting, added at 5×10⁴ cells/100 μL to the U-shaped 96-well plate, centrifuged at 1100 rpm for 3 minutes, the supernatant was discarded, the cells were gently patted and loosed, 50 μL of antibody diluted according to the series was added to each well (antibody concentration starts from 100 nM, 5 times dilution in 8 series), and incubate at 4° C. for 1 hour. After the incubation, 140 μL 0.5% BSA was added to each well to wash 3 times, the secondary antibody AlexaFluro647 anti-human IgG (Jackson ImmunoResearch, catalog number: 109-606-170) was added with 30 μL/well, and incubated at 4° C. for 40 minutes. After the incubation, 140 μL 0.5% BSA was added to each well to wash 3 times, and finally resuspended each well with 50 μL PBS for flow cytometry (iQue Screener) detection.

human Claudin 18.1 = biological target: T2, human Claudin 18.1; test: flow cytometry on HEK293-Claudin 18.1 cells, chimeric IgG1
Experimental: as §1

| EC50 (human Claudin 18.2) [nM] | Binder | binding result (human Claudin 18.1) |
| --- | --- | --- |
| 3.79 | 18G5 (antibody, V domains shown, also called Clone 18G5) VH: EVQLQQSGREVVRPGTSVKVSCKPSGYAFTNYLIDWVKQRPGQGLEWIGGINPGSGDTVYNEKFKAKATLTADKSSMTTNMQLSSLTSDDSAVYFCARRVRGNSFDSWGQGTLVTVSA VL: DIVMTQSPSSLTVRAGEKVTMTCKSSQSLFNSGNQRNYLTWYQQKPGQPPKLLLYWATARESGVPDRFTGSGSGTDFTLSISSVQAEDLAVYYCQNVYFYPLTFGAGTKLEIK | no binding (tested: 100 nM (highest concentration tested)) |
| 0.2 | 19B2 (antibody, V domains shown, also called Clone 19B2) VH: QVQLQQSGAELVKPGTSVKLSCKASGYSFTTYGLNWVRQRPKQGLEWIGWIFPGDGNVNYNEKFQGQATLTTDKSSSTAYMQLSRLTSEDSAVYFCARFYYGNSLNYWGQGTLVTVSA VL: DIVMTQSPSSLTVTAGEKVTMSCKSSQSLLNSGNLRNYLTWYQQKPGRPPKLLIYWASTRESGVPDRFTGSGSGTDFTLTISSVQAEDLAVYYCQNNYFYPLTFGAGTKLEIK | no binding (tested: 100 nM (highest concentration tested)) |
| 0.19 | 25A5 (antibody, V domains shown, also called Clone 25A5) VH: EVQLKESGPGLVAPSQSLSITCTVSGFSLTNYGVSWIRQPPGKGLEWLGAIWAGGNTNYNSALMSRLSIRKDNSKSQVFLKMNSLQTDDTAMYYCARVGYGNSFANWGQGTLVTVSA VL: DIVMTQSPSSLTVTAGEKVTMSCKSSQSLLNSGNQRNYLTWYQQKPGQPPKLLIYWASTRESGIPDRFIGSGSGTDFTLTISSVQAEDVSVYYCQNNYIFPLTFGAGTKLEIK | no binding (tested: 100 nM (highest concentration tested)) |

Continued, binder first:

| Binder | EC50 (human Claudin 18.2) [nM] | binding result (human Claudin 18.1) |
| --- | --- | --- |
| 9C9 (antibody, V domains shown, also called Clone 9C9) VH: EVQLKESGPGLVAPSQSLSITCTVSGFSLTNYGVSWIRQPPGKGLEWLGAIWAGGNTNYNSALMSRLSIRKDNSKSQVFLKMNSLQTDDTAMYYCARVGYGNSFANWGQGTLVTVSA VL: DIVMTQSPSSLTVTAGEKVTLSCKSSQTLLNSGNQKNYLTWYQQKPGQPPKLLIYWASTRESGVPDRFTGSGSGTDFTLTISSVQAEDLAVYYCQNNYFYPLTFGAGTRLEIK | 1.46 | no binding (tested: 100 nM (highest concentration tested)) |
| 9D12 (antibody, V domains shown, also called Clone 9D12) VH: EVQLQQSGREVVRPGTSVKVSCKPSGYAFTNYLIDWVKQRPGQGLEWIGGINPGSGDTVYNERFKDKATLTADKSSSSANMQLSSLTSDDSAVYFCARRVRGNSFDSWGQGTLVTVSA VL: DIVMTQSPSSLTVTAGQKVTMSCKSSQSLLNSGNQKNYLTWYQQKPGQPPKLLIYWASTRESGVPDRFTGSGSGKDFTLTISSVQAEDLAVFYCQNNYFYPLTFGAGTKLELK | 6.78 | no binding (tested: 100 nM (highest concentration tested)) |
| 9A8 (antibody, V domains shown, also called Clone 9A8) VH: QVQLQQSGREVVRPGTSVKVSCKPSGYAFTNYLIDWVKQRPGQGLEWIGGINPGSGDTVYNEKFKAKATLTADKSSMTANMQLSSLTSDDSAVYFCARRVRGNSFDSWGQGTLVTVSA VL: DIQMTQSPSSLTVTAGEKVTMSCKSSQSLLNSGNQRNYLTWYQQKTGQPPKLLIYWASTRESGVPDRFTGSGSGTDFTLTINSVQAEDLAVYYCQNNYYYPLTFGAGTKLEIK | 0.21 | no binding (tested: 100 nM (highest concentration tested)) |
| 15D11 (antibody, V domains shown, also called Clone 15D11) VH: QVQLQQSGPGLVAPSQSLSITCTVSGFSLTNYGVSWIRQPPGKGLEWLGAIWAGGNTNYNSALMSRLSIRKDNSKSQVFLKMNSLQTDDTAMYYCARVGYGNSFANWGQGTLVTVSA VL: DIVMTQSPSSLTVTAGEKVTMSCKSSQSLLNSGNLRNYLTWYQQKPGRPPKLLIYWASTRESGVPDRFTGSGSGTDFTLTISSVQAEDLAVYYCQNNYFYPLTFGAGTKLELK | 0.21 | no binding (tested: 100 nM (highest concentration tested)) |
